# Reference: publication PMC2895232
# Experiments:
# [1] = test system: ParB1-229 (Pseudomonas aeruginosa PAO1161); assay: EMSA; settings: not given in the material
# [2] = target: ParBΔ121–183 of Pseudomonas aeruginosa (Pseudomonas aeruginosa); assay: cross-linking; glutaraldehyde cross-linking in vitro of purified His6-tagged ParB proteins to determine the oligomeric state; WT ParB as the control
# [3] = target: wild-type ParB of Pseudomonas aeruginosa (Pseudomonas aeruginosa); assay: as above
substance,measurement,setting,value
parS,binding signal (fold of WT affinity (>5-fold decreased)),[1],< 0.2
ParBΔ121–183 of Pseudomonas aeruginosa (natural protein),stoichiometry N,[2],2
wild-type ParB of Pseudomonas aeruginosa (natural protein),stoichiometry N,[3],2
